Columns and labels:
Tp17-HIS monomers = target: T1, Tp17-HIS monomers (Treponema pallidum, UniProt P29722 23-156); experiment: size-exclusion chromatography of complexes formed in vitro
T1 construct: also called monomeric Tp17-His; not shown: HIS tag from the pET24a vector
T1 sequence: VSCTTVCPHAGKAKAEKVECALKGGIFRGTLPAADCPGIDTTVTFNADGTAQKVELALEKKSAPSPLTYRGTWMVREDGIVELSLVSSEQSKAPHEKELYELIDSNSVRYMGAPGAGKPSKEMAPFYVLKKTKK

Tp17-HIS dimers = target: T2, Tp17-HIS dimers (Treponema pallidum, UniProt P29722 23-156); experiment: as above
T2 construct: also called dimeric Tp17-His; not shown: HIS tag from the pET24a vector
T2 sequence: T1 sequence

GST-Tp47 fusion protein = target: T3, GST-Tp47 fusion protein (Treponema pallidum, UniProt P29723 20-434); experiment: Far Western blot, lysozyme on PVDF membrane
T3 construct: Control protein that shares the GST moiety with GST-Tp17; also called control GST-Tp47 antigen; not shown: GST moiety
T3 sequence: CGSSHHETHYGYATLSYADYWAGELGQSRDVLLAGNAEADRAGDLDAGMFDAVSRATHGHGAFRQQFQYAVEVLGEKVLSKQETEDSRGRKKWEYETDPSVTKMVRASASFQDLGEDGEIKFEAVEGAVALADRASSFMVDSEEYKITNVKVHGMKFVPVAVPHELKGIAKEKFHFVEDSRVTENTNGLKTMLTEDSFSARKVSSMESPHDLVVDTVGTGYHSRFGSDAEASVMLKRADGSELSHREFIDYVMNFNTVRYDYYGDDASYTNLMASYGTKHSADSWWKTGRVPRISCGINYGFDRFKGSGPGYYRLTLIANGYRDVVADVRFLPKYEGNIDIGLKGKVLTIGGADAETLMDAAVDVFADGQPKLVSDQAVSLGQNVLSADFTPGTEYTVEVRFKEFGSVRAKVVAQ

B1: recombinant human lysozyme (Ventria Bioscience) (enzyme)
chain: KVFERCELARTLKRLGMDGYRGISLANWMCLAKWESGYNTRATNYNAGDRSTDYGIFQINSRYWCNDGKTPGAVNACHLSCSALLQDNIADAVACAKRVVRDPQGIRAWVAWRNRCQNRDVRQYVQGCGV
notes: Bought product (159-53LZ-90P); also called huLYS; LyzR
Does B1 bind (Tp17-HIS monomers)?
Result: binds

Does B1 bind (Tp17-HIS dimers)?
Result: binds

B2: human breast milk lysozyme (enzyme)
chain: B1 chain
notes: also called human lysozyme; huLYS
Does B2 bind (GST-Tp47 fusion protein)?
Result: no binding
